Assay results taken from PMC6032885.

Target: TbAlsin (T. brucei)
Test: co-IP; equal volumes (10 uL each) of in vitro translated 35S-Met-labelled HA-tagged TbVps9 protein (bait) and TbRab (prey) mixed, 1 h at room temperature; anti-HA polyclonal antibody and protein A beads; 7 washes with 50 mM Tris pH 7.5, 150 mM NaCl, 10 mM EDTA, 0.1% Triton X-100, 10 mM MgCl2; SDS-PAGE and autoradiography

**Q.** TbRab5A^SN (natural protein) was tested. Which percent of TbAlsin bound did it give?
**A.** 50%
